Consider 14 variants from the supplement of paper PMC7125110.

The chains are these.
B1: glmS ribozyme (parent)
chain: AUAAAAGCGCCAGAACUACAGAAAUGUAGUUGACGAGGAGGAGGUUUAUCGAAUUUUCGGCGGAUGCCUCCAAA

What all share (settings): with glucosamine-6-phosphate
Variants of B1 are the subject of data set [1]. The data set is described as follows: kcat; higher = faster cleavage; RNA array. In outline: (§1)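 Tiles of sequenced MiSeq chips were imaged over ~14 h at 37 °C. On them, barcoded ribozyme variants had been transcribed in situ by E. coli RNA polymerase and were tracked via a hybridised Cy3 probe while glucosamine-6-phosphate (40 μM to 10 mM) in HEPES/KCl/Mg(OAc)2 buffer flowed in. Per-tile medians, normalised to baseline and to non-cleaving reference variants, were fit to one- or two-exponential decays for kobs, and weighted Michaelis–Menten fits gave kcat and KM.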

Data set [2] covers variants of B1. Nature of the data set: KM; higher = weaker cofactor use; RNA array. In outline: as §1
In data set [3] the parent is B1. Nature of the data set: self-cleavage kobs at 640 uM GlcN6P; higher = faster cleavage; RNA array. In a few lines:
as §1

Data set [4] covers variants of B1. Nature of the data set: self-cleavage kobs at 2500 uM GlcN6P; higher = faster cleavage; RNA array. In outline:
as §1

Variants of B1 are the subject of data set [5]. Nature of the data set: self-cleavage kobs at 10000 uM GlcN6P; higher = faster cleavage; RNA array. In outline: as §1
Variants of B1 are the subject of data set [6]. The data set is described as follows: self-cleavage kobs at 40 uM GlcN6P; higher = faster cleavage; RNA array. In a few lines:
as §1

Variants of B1 are the subject of data set [7]. Nature of the data set: self-cleavage kobs at 160 uM GlcN6P; higher = faster cleavage; RNA array. In outline:
as §1

± gives the standard error. For some assays here: Fewer inactive variants are shown than the library holds. Some results are limits rather than exact numbers.

A word on the kcat: it is the maximal rate divided by the concentration of active sites. For orientation: KM means the concentration of substrate that gives half-maximal velocity. As to AUAAAAGCGCAGGAACUACAGAAAUGUAGUUGACGAGGAGGAGGUUUAUCGAAUUUUCGGCGGAUGCCUCCAAA [C11A A12G], in the data set with glucosamine-6-phosphate [1], the kcat is 0.000158 ± 1.7e-05 s⁻¹. Further, the KM with glucosamine-6-phosphate [2] was found to be 3.02 ± 0.72 mM. Also, the “self-cleavage kobs at 640 uM GlcN6P” value with glucosamine-6-phosphate [3] amounted to 2.43e-05 ± 1.1e-05 s⁻¹. For the same variant, the “self-cleavage kobs at 2500 uM GlcN6P” value in the data set with glucosamine-6-phosphate [4] came to 8.06e-05 ± 2.3e-05 s⁻¹. For the same variant, the “self-cleavage kobs at 10000 uM GlcN6P” value in the data set with glucosamine-6-phosphate [5] is 0.000119 ± 2.5e-05 s⁻¹.

In the case of AUAAAAGCGCCAGAACUACAGAAAUGUAGUUGACGACGAGGAGGUUUAUCGAACUUUCGGCGGAUGCCUCCAAA [G37C U54C], the kcat with glucosamine-6-phosphate [1] is 6.94e-05 ± 3e-05 s⁻¹. Besides, in the data set with glucosamine-6-phosphate [5], the “self-cleavage kobs at 10000 uM GlcN6P” value worked out at 3.48e-05 ± 7.4e-06 s⁻¹.

As to AUAAAAGCGCCAGAACUACAGAAAUGUAGUUGACGAGGAGGAGGUUUAUCGAAUGUUCGGCGGAUUCCUCCAAA [U55G G66U], the kcat with glucosamine-6-phosphate [1] worked out at 0.00299 ± 0.00092 s⁻¹. Moreover, the KM in the data set with glucosamine-6-phosphate [2] came to 4.24 ± 1.8 mM. Besides, in the data set with glucosamine-6-phosphate [6], the “self-cleavage kobs at 40 uM GlcN6P” value stood at 4.47e-05 ± 1.7e-05 s⁻¹. The “self-cleavage kobs at 160 uM GlcN6P” value in the data set with glucosamine-6-phosphate [7] is 8.99e-05 ± 1.6e-05 s⁻¹. Further, in the data set with glucosamine-6-phosphate [3], the “self-cleavage kobs at 640 uM GlcN6P” value stood at 0.00054 ± 0.0001 s⁻¹. The “self-cleavage kobs at 2500 uM GlcN6P” value in the data set with glucosamine-6-phosphate [4] came out at 0.00126 ± 0.00021 s⁻¹. Moreover, in the data set with glucosamine-6-phosphate [5], the “self-cleavage kobs at 10000 uM GlcN6P” value is 0.00195 ± 0.00034 s⁻¹.

Consider AUAAAAGCGCCAGAACUACAGAAAUGUAGUUGACGAGGAGGAGGUGUAUCGAAGUUUCGGCGGAUGCCUCCAAA [U46G U54G], for which the kcat in the data set with glucosamine-6-phosphate [1] stood at 0.0123 ± 0.0017 s⁻¹. In addition, the Michaelis-Menten constant (KM) with glucosamine-6-phosphate [2] is 3.11 ± 0.51 mM. Besides, the “self-cleavage kobs at 40 uM GlcN6P” value with glucosamine-6-phosphate [6] was 0.000155 ± 2.6e-05 s⁻¹. Further, in the data set with glucosamine-6-phosphate [7], the “self-cleavage kobs at 160 uM GlcN6P” value worked out at 0.000596 ± 0.00017 s⁻¹. The “self-cleavage kobs at 640 uM GlcN6P” value in the data set with glucosamine-6-phosphate [3] amounted to 0.00224 ± 0.0004 s⁻¹. The “self-cleavage kobs at 2500 uM GlcN6P” value with glucosamine-6-phosphate [4] worked out at 0.00479 ± 0.0013 s⁻¹. The “self-cleavage kobs at 10000 uM GlcN6P” value with glucosamine-6-phosphate [5] was found to be 0.0102 ± 0.003 s⁻¹.

For the variant AUAAAAGCGCCAGAACUACAGAAAUGUAGUUGACGAGGAGGAGGUCUAUCGAAUUGUCGGCGGAUGCCUCCAAA [U46C U56G], the kcat with glucosamine-6-phosphate [1] is 0.00195 ± 0.00027 s⁻¹. Further, in the data set with glucosamine-6-phosphate [2], the KM came out at 1.39 ± 0.31 mM. Moreover, the “self-cleavage kobs at 40 uM GlcN6P” value in the data set with glucosamine-6-phosphate [6] worked out at 5.6e-05 ± 9.5e-06 s⁻¹. In the data set with glucosamine-6-phosphate [7], the “self-cleavage kobs at 160 uM GlcN6P” value came out at 0.000159 ± 3e-05 s⁻¹. In addition, the “self-cleavage kobs at 640 uM GlcN6P” value in the data set with glucosamine-6-phosphate [3] turned out to be 0.000736 ± 8.1e-05 s⁻¹. In addition, the “self-cleavage kobs at 2500 uM GlcN6P” value with glucosamine-6-phosphate [4] was determined as 0.00128 ± 0.00017 s⁻¹. For the same variant, the “self-cleavage kobs at 10000 uM GlcN6P” value in the data set with glucosamine-6-phosphate [5] was 0.00164 ± 0.00018 s⁻¹.

On to AUAAAAGCGCCAGAACUACAGAAAUGUAGUUGACGAGGGGGAGGUUUAUCGAAUUCUCGGCGGAUGCCUCCAAA [A39G U56C], for which the turnover number (kcat) in the data set with glucosamine-6-phosphate [1] was 0.00799 ± 0.002 s⁻¹. The KM in the data set with glucosamine-6-phosphate [2] was 3.24 ± 1.1 mM. In addition, the “self-cleavage kobs at 40 uM GlcN6P” value with glucosamine-6-phosphate [6] is 0.000109 ± 1.2e-05 s⁻¹. Also, the “self-cleavage kobs at 160 uM GlcN6P” value in the data set with glucosamine-6-phosphate [7] amounted to 0.000656 ± 0.00018 s⁻¹. For the same variant, the “self-cleavage kobs at 640 uM GlcN6P” value in the data set with glucosamine-6-phosphate [3] turned out to be 0.00106 ± 0.00014 s⁻¹. For the same variant, in the data set with glucosamine-6-phosphate [4], the “self-cleavage kobs at 2500 uM GlcN6P” value amounted to 0.0039 ± 0.00058 s⁻¹. For the same variant, the “self-cleavage kobs at 10000 uM GlcN6P” value with glucosamine-6-phosphate [5] worked out at 0.00611 ± 0.00076 s⁻¹.

With AUAAAAGCGCCAGAACUACAGAAAUGUAGUUGACGAGGGGGAGGUUUGUCGAAUUUUCGGCGGAUGCCUCCAAA [A39G A48G], the kcat with glucosamine-6-phosphate [1] is 0.000124 ± 2.2e-05 s⁻¹. For the same variant, the “self-cleavage kobs at 2500 uM GlcN6P” value with glucosamine-6-phosphate [4] was found to be 0.00013 ± 2.7e-05 s⁻¹. In the data set with glucosamine-6-phosphate [5], the “self-cleavage kobs at 10000 uM GlcN6P” value turned out to be 0.000106 ± 1.4e-05 s⁻¹.

Consider AUAAAAGCGCCAGAACUACAGAAAUGUAGUUGACGAGGAGGAGGUUUAUCGAAUUUUCGGCGGAUACCUCGAAA [G66A C71G], for which, in the data set with glucosamine-6-phosphate [1], the catalytic constant (kcat) was determined as 0.00165 ± 0.00056 s⁻¹. Moreover, the KM in the data set with glucosamine-6-phosphate [2] worked out at 1.47 ± 0.72 mM. Further, the “self-cleavage kobs at 40 uM GlcN6P” value with glucosamine-6-phosphate [6] was found to be 5.97e-05 ± 7.2e-06 s⁻¹. Also, the “self-cleavage kobs at 160 uM GlcN6P” value in the data set with glucosamine-6-phosphate [7] was determined as 0.000141 ± 1.8e-05 s⁻¹. The “self-cleavage kobs at 640 uM GlcN6P” value with glucosamine-6-phosphate [3] turned out to be 0.000486 ± 6.2e-05 s⁻¹. The “self-cleavage kobs at 2500 uM GlcN6P” value in the data set with glucosamine-6-phosphate [4] turned out to be 0.000935 ± 9.9e-05 s⁻¹. Also, in the data set with glucosamine-6-phosphate [5], the “self-cleavage kobs at 10000 uM GlcN6P” value turned out to be 0.00264 ± 0.00044 s⁻¹.

On to AUAAAAUCGCCAGAACUACAGAAAUGUAGUUGACGAGGAGGAGGUUUAUCGAAUUUUCGGCGGAUGUCUCCAAA [G7U C67U], for which the turnover number (kcat) in the data set with glucosamine-6-phosphate [1] is less than 1e-05 s⁻¹. Further, in the data set with glucosamine-6-phosphate [6], the “self-cleavage kobs at 40 uM GlcN6P” value is less than 1e-05 s⁻¹. Moreover, the “self-cleavage kobs at 160 uM GlcN6P” value with glucosamine-6-phosphate [7] was less than 1e-05 s⁻¹. In addition, in the data set with glucosamine-6-phosphate [4], the “self-cleavage kobs at 2500 uM GlcN6P” value is less than 1e-05 s⁻¹.

For AUAAAAGCGCCAGAAUUACAGAAAUGUAGUUGACGAGGAGGAGCUUUAUCGAAUUUUCGGCGGAUGCCUCCAAA [C16U G44C], the kcat with glucosamine-6-phosphate [1] was 6.71e-05 ± 2.3e-05 s⁻¹. Besides, the “self-cleavage kobs at 640 uM GlcN6P” value with glucosamine-6-phosphate [3] is 6.27e-05 ± 1.7e-05 s⁻¹. In addition, the “self-cleavage kobs at 2500 uM GlcN6P” value with glucosamine-6-phosphate [4] is 2.88e-05 ± 1.4e-05 s⁻¹. Moreover, in the data set with glucosamine-6-phosphate [5], the “self-cleavage kobs at 10000 uM GlcN6P” value stood at 8.38e-05 ± 1.3e-05 s⁻¹.

With AUAAAAGCGCCAGAACUACAGAAAUGUAGUUGACGAGGAGGAGGUUUAUCGAAUUUUCGGCGGUUACCUCCAAA [A64U G66A], the kcat in the data set with glucosamine-6-phosphate [1] stood at 0.000113 ± 1.2e-05 s⁻¹. Moreover, the Michaelis-Menten constant (KM) in the data set with glucosamine-6-phosphate [2] worked out at 3.46 ± 0.93 mM. In the data set with glucosamine-6-phosphate [6], the “self-cleavage kobs at 40 uM GlcN6P” value is less than 1e-05 s⁻¹. Moreover, the “self-cleavage kobs at 2500 uM GlcN6P” value with glucosamine-6-phosphate [4] came out at 4.95e-05 ± 8.6e-06 s⁻¹. The “self-cleavage kobs at 10000 uM GlcN6P” value with glucosamine-6-phosphate [5] was 8.32e-05 ± 1e-05 s⁻¹.

AUAAAAGCGCCAGAACUACAGAAAUGUAGUUGACGAGGAGGAGGUUUAUAGAAUUUUCGGCGGAUGCCUUCAAA [C50A C70U]: the kcat in the data set with glucosamine-6-phosphate [1] came out at 3.03e-05 ± 6.5e-06 s⁻¹. Besides, the “self-cleavage kobs at 640 uM GlcN6P” value with glucosamine-6-phosphate [3] was found to be 2.82e-05 ± 9.4e-06 s⁻¹. Besides, in the data set with glucosamine-6-phosphate [4], the “self-cleavage kobs at 2500 uM GlcN6P” value worked out at 3.95e-05 ± 6.5e-06 s⁻¹. Besides, the “self-cleavage kobs at 10000 uM GlcN6P” value with glucosamine-6-phosphate [5] turned out to be 1.9e-05 ± 7e-06 s⁻¹.

In the case of AUAAAAGCGCCAGAACUACAGAAAUGUAGUAGACGAGGAGGAGGUUUAUCGAAAUUUCGGCGGAUGCCUCCAAA [U31A U54A], the kcat in the data set with glucosamine-6-phosphate [1] was 0.011 ± 0.003 s⁻¹. Besides, the Michaelis-Menten constant (KM) in the data set with glucosamine-6-phosphate [2] was 1.64 ± 0.59 mM. The “self-cleavage kobs at 40 uM GlcN6P” value in the data set with glucosamine-6-phosphate [6] was 0.000241 ± 4.8e-05 s⁻¹. The “self-cleavage kobs at 160 uM GlcN6P” value in the data set with glucosamine-6-phosphate [7] was determined as 0.00112 ± 0.00023 s⁻¹. In the data set with glucosamine-6-phosphate [3], the “self-cleavage kobs at 640 uM GlcN6P” value was found to be 0.00342 ± 0.00062 s⁻¹. In the data set with glucosamine-6-phosphate [4], the “self-cleavage kobs at 2500 uM GlcN6P” value stood at 0.00508 ± 0.0013 s⁻¹. Moreover, the “self-cleavage kobs at 10000 uM GlcN6P” value in the data set with glucosamine-6-phosphate [5] turned out to be 0.0126 ± 0.0031 s⁻¹.

Consider AUAAAAGCGCCAGAACUACAGAAAUGUAGCUGACGAGGAGGAGGUUUAUCGAAUUUUCGGCGGAUGCUUCCAAA [U30C C68U], for which the turnover number (kcat) with glucosamine-6-phosphate [1] was 0.000128 ± 8.6e-06 s⁻¹. Also, the KM in the data set with glucosamine-6-phosphate [2] stood at 1.21 ± 0.27 mM. Besides, in the data set with glucosamine-6-phosphate [3], the “self-cleavage kobs at 640 uM GlcN6P” value stood at 4.07e-05 ± 6.8e-06 s⁻¹. The “self-cleavage kobs at 2500 uM GlcN6P” value with glucosamine-6-phosphate [4] turned out to be 9.82e-05 ± 1.1e-05 s⁻¹. In addition, the “self-cleavage kobs at 10000 uM GlcN6P” value with glucosamine-6-phosphate [5] is 0.000111 ± 8.5e-06 s⁻¹.
